molecular target: DQ1-MBP85-99 complex, monobiotinylated (SPR); assay: SPR

Row | Substance | Kd [µM]
1 | Hy.1B11 TCR mutant CDR3α E98A | > 250
2 | Hy.1B11 TCR mutant CDR3α F95A | > 250
3 | Hy.1B11 TCR, soluble monomeric wild type | 14.3
4 | Hy.1B11 TCR double mutant CDR1α N31A and CDR2α S52A | 13.8
5 | Hy.1B11 TCR mutant CDR2β Q48A | 108

— publication PMC3023130
